In patent US20080026996A1, “Selective Vpac2 Receptor Reptide Agonists” (ELI LILLY AND COMPANY, priority 2004, published 2008):
Where no end group is shown, it is not given here. [ ]: non-standard residue; d: D form. The star is where a group is joined. Orn = NCCC[C@H](N)C(=O)O; Hexanoyl = CCCCCC(=O)*; Aib = CC(C)(N)C(=O)O

B1: P143 (peptide)
peptide: Hexanoyl-HSDAVFTDNYTRLRKQMAAQKYLNQLKKGGPSSGAPPPS
B2: P167 (peptide)
peptide: Hexanoyl-HSDAVFTDNYTRL[Aib]KQVAAKKYLQSIKNKRYGGPSSGAPPPS
modifications: ends and bridges not checked
B3: P243 (peptide)
peptide: Hexanoyl-HSDAVFTDNYTRL[Aib]KQVAAQKYLQSIKNKRYGGPSSGAPPPS
modifications: ends and bridges not checked
B4: P346 (peptide)
peptide: Hexanoyl-HSDAVFTDNYTR[Aib]R[Aib]QVAA[Aib]KYLQSIKNKRYGGPSSGAPPPS
modifications: ends and bridges not checked
B5: P169 (peptide)
peptide: Hexanoyl-HSDAVFTDNYTRLRKQVAA[Aib]KYLQSIKNKRYGGPSSGAPPPS
modifications: ends and bridges not checked
B6: P240 (peptide)
peptide: Hexanoyl-HSDAVFTDNYTRL[Aib]KQLAA[Aib]KYLQSIKNKRYGGPSSGAPPPS
modifications: ends and bridges not checked
B7: P242 (peptide)
peptide: Hexanoyl-HSDAVFTDNYTRL[Aib]KQVAA[Aib]KYLQSIKNKRYGGPSSGAPPPS
modifications: ends and bridges not checked
B8: P140 (peptide)
peptide: MHSDAVFTDNYTRLLAKLALQKYLQSIKNKRYGGPSSGAPPPS
modifications: N-terminal methionine added (M-)
B9: P222 (peptide)
peptide: Hexanoyl-HGEGTFTDNYTRLRKQVAAKKYLQSIKNKRYGGPSSGAPPPS
B10: P291 (peptide)
peptide: Hexanoyl-HSDAVFTDNYTRLR[Aib]QLAA[Aib]KYLQSIKNKRYGGPSSGAPPPS
modifications: ends and bridges not checked
B11: P315 (peptide)
peptide: Hexanoyl-HSDAVFTDQYTRLR[Aib]QVAA[Aib]KYLQSIKQKRYGGPSSGAPPPS
modifications: ends and bridges not checked
B12: P321 (peptide)
peptide: Hexanoyl-HSDAVFTDNYTRLR[Aib]KVAA[Aib]KYLQSIKNKRYGGPSSGAPPPS
modifications: ends and bridges not checked
B13: P314 (peptide)
peptide: Hexanoyl-HSEAVFTENYTRLR[Aib]QVAA[Aib]KYLQSIKNKRYGGPSSGAPPPS
modifications: ends and bridges not checked
B14: P318 (peptide)
peptide: Hexanoyl-HSDAVFTDNYTRLK[Aib]QVAA[Aib]KYLQSIKNKRYGGPSSGAPPPS
modifications: ends and bridges not checked
B15: P154 (peptide)
peptide: Hexanoyl-HSDAVFTDNYTRLRKQVAAKKYLQSIKNGGPSSGAPPPS
B16: P251 (peptide)
peptide: Hexanoyl-HSDAVFTDNYTRLQKQVAAK[Aib]YLQSIKNKRYGGPSSGAPPPS
modifications: ends and bridges not checked
B17: P121 (peptide)
peptide: Hexanoyl-HSDAVFTDNYTRLRKQVAAKKYLQSIKNKKGGPSSGAPPPS
B18: P342 (peptide)
peptide: Hexanoyl-HSDAVFTDNYTRLR[Aib]QVAA[Aib][Orn]YLQSIKNKRYGGPSSGAPPPS
modifications: ends and bridges not checked
B19: P241 (peptide)
peptide: Hexanoyl-HSDAVFTDNYTRL[Aib]KQLAAK[Aib]YLQSIKNKRYGGPSSGAPPPS
modifications: ends and bridges not checked
B20: P244 (peptide)
peptide: Hexanoyl-HSDAVFTDNYTRL[Aib]KQVAAK[Aib]YLQSIKNKRYGGPSSGAPPPS
modifications: ends and bridges not checked
B21: P344 (peptide)
peptide: HSDAVFTDNYTXLRXQVAAXKYLQSIKNKRYGGPSSGAPPPS
modifications: N-terminal hexanoyl (C6); Orn at 12; Aib at 15, 20
B22: P270 (peptide)
peptide: Hexanoyl-HSDAVFTDNYTRLRKQVAAKKYLQSIKQKGGPSSGAPPPS
B23: P335 (peptide)
peptide: HSDAVFTDNYTXLRXQVAAXKYLQSIXXGGPSSGAPPPS
modifications: N-terminal hexanoyl (C6); Orn at 12; Aib at 15, 20; hR at 27, 28
B24: P168 (peptide)
peptide: Hexanoyl-HSDAVFTDNYTRLR[Aib]QVAAKKYLQSIKNKRYGGPSSGAPPPS
modifications: ends and bridges not checked
B25: P135 (peptide)
peptide: Hexanoyl-HSDAVFTDNYTRLLAKVAAKKYLQSIKNKRYGGPSSGAPPPS
B26: P150 (peptide)
peptide: Hexanoyl-HSDAVFTDNYTRLRKQVAAQKYLQSIKNKRYGGPSSGAPPPS
B27: P172 (peptide)
peptide: Hexanoyl-HSDAVFTDNYTRLQKQVAAKKYLQSIKNKRYGGPSSGAPPPS
B28: P177 (peptide)
peptide: Hexanoyl-HSDAVFTDNYTRLRQQVAAKKYLQSIKNKRYGGPSSGAPPPS
B29: P170 (peptide)
peptide: Hexanoyl-HSDAVFTDNYTRLRKQVAAK[Aib]YLQSIKNKRYGGPSSGAPPPS
modifications: ends and bridges not checked
B30: P329 (peptide)
peptide: HSDAVFTDNYTXLRXQVAAXKYLQSIXNXGGPSSGAPPPS
modifications: N-terminal hexanoyl (C6); hR at 12, 27, 29; Aib at 15, 20

The binders below were run against T1, rat VPAC1 receptor (rat, UniProt P30083 31-459) (assay: cell-based or functional assay).
T1 sequence (looked up): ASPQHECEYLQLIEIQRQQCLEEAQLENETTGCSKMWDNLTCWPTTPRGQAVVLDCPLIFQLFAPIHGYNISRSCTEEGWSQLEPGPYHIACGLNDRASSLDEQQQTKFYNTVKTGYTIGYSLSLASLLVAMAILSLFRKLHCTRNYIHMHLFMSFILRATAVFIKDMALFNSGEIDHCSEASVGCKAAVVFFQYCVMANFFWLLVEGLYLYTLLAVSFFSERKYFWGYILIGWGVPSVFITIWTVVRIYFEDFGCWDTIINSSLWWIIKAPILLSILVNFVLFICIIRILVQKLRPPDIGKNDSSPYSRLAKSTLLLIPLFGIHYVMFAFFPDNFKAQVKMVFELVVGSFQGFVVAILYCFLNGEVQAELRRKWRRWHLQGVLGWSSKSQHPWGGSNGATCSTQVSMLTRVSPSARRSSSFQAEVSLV

Binder	EC50 cAMP, DiscoveRx [nM]
B1	3.81
B2	6.88
B3	157
B4	3.02
B5	1.32
B6	24.5
B7	72.2
B8	5.81
B9	43.9
B10	1.12
B11	1.18
B12	0.11
B13	29.2
B14	9.96
B15	0.85
B16	212
B17	0.66
B18	2.39
B19	61.1
B20	127
B21	1.56
B22	0.67

What follows are binders tested against T2, rat VPAC2 receptor (rat, UniProt P35000 23-437) (assay: cell-based or functional assay).
T2 sequence (looked up): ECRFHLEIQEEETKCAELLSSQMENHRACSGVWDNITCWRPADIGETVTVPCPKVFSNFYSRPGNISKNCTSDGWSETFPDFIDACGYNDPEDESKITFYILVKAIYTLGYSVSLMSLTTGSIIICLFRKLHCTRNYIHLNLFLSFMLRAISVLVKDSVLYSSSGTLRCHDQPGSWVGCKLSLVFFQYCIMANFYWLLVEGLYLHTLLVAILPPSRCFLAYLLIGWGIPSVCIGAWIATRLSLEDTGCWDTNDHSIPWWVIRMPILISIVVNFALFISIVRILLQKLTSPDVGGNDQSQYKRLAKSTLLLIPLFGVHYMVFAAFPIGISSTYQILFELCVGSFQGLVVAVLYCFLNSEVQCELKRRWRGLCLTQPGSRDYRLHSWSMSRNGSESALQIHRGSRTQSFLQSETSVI

Binder	EC50 cAMP, DiscoveRx [nM]
B23	0.05
B2	0.24
B3	0.79
B5	0.07
B6	0.36
B7	0.46
B24	0.05
B25	0.05
B26	0.1
B9	34.9
B27	0.11
B28	0.1
B11	0.04
B12	0.04
B13	0.12
B14	0.09
B29	0.15
B30	0.15
B20	1.85

Each binder was assayed against T3, human VPAC2 receptor (human, UniProt P41587 24-438) (assay: cell-based or functional assay).
T3 sequence (looked up): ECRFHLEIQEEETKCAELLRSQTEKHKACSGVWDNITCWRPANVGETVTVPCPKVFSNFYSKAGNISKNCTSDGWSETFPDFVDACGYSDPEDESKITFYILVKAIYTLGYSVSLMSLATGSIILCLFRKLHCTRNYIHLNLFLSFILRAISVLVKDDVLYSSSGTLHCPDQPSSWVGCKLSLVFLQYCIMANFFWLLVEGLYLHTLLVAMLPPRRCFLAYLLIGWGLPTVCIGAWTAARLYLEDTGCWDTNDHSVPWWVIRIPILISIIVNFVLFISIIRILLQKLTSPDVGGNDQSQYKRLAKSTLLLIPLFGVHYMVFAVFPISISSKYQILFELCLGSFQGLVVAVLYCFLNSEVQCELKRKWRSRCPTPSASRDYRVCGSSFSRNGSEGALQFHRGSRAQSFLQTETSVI

Binder	EC50 cAMP, Alpha Screen [nM]
B1	0.1
B23	0.22
B2	0.17
B3	0.28
B4	0.23
B5	0.14
B6	0.51
B7	0.8
B8	0.07
B24	0.27
B25	0.18
B26	0.18
B9	0.51
B27	0.29
B28	0.21
B10	0.36
B11	0.19
B12	0.38
B13	0.22
B14	0.32
B15	0.18
B29	0.18
B16	0.92
B17	0.1
B18	0.21
B19	2.17
B20	2.03
B21	0.13
B22	0.13
